Several values for one entry are separate records, joined by “and”; a condition that tells them apart may be missing. Equal entries are not always repeated.
What was measured:
ERα = target: T1, ERα (Homo sapiens, UniProt P03372); assay: Phage ELISA / fingerprint on ER immobilized on biotinylated ERE (Examples 2.3-2.5); format: binding; set-up: purchased PanVera Corporation, Madison, WI; key to binding activity, ERα and buffer / binding activity, ERα and estradiol / binding activity, ERα and tamoxifen / binding of peptide, Class Specific Fingerprint on ERα: semiquantitative scale of 0 to 7+; 1+: semiquantitative scale of 0 to 7+; 2+: semiquantitative scale of 0 to 7+; 3+: semiquantitative scale of 0 to 7+; 4+: semiquantitative scale of 0 to 7+; 5+: semiquantitative scale of 0 to 7+; 6+: semiquantitative scale of 0 to 7+; semiquantitative scale of 0 to 7+; details: for binding activity, ERα and estradiol: ERα and estradiol (1 µM); for binding activity, ERα and tamoxifen: ERα and tamoxifen (4-OH tamoxifen, 1 µM)
T1 sequence (P03372 1-595): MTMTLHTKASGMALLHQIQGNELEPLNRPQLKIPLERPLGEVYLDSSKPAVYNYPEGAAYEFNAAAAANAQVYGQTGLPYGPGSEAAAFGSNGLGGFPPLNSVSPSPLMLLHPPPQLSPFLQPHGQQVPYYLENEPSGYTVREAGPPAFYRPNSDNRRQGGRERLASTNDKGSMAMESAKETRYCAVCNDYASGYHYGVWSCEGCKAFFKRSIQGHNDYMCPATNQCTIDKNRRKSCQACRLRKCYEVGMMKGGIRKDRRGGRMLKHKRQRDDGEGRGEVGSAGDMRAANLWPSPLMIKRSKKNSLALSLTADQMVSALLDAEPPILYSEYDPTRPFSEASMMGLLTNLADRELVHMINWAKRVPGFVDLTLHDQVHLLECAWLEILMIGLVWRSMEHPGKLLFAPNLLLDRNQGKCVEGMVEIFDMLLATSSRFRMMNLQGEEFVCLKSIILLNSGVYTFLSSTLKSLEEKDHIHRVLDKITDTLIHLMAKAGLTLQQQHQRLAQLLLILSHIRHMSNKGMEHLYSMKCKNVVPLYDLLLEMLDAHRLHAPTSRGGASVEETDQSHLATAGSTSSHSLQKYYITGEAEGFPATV

ERβ = ERβ (Homo sapiens, UniProt Q92731); assay: as above; format: binding; set-up: purchased PanVera Corporation, Madison, WI; key: semiquantitative scale of 0 to 7+; 1+: semiquantitative scale of 0 to 7+; 2+: semiquantitative scale of 0 to 7+; 3+: semiquantitative scale of 0 to 7+; 4+: semiquantitative scale of 0 to 7+; 5+: semiquantitative scale of 0 to 7+; 6+: semiquantitative scale of 0 to 7+; semiquantitative scale of 0 to 7+; details: for binding activity, ERβ and Estradiol: ERβ and Estradiol (1 µM); for binding activity, ERβ and tamoxifen: ERβ and tamoxifen (4-OH tamoxifen, 1 µM)
ERβ, sequence (Q92731 whole entry): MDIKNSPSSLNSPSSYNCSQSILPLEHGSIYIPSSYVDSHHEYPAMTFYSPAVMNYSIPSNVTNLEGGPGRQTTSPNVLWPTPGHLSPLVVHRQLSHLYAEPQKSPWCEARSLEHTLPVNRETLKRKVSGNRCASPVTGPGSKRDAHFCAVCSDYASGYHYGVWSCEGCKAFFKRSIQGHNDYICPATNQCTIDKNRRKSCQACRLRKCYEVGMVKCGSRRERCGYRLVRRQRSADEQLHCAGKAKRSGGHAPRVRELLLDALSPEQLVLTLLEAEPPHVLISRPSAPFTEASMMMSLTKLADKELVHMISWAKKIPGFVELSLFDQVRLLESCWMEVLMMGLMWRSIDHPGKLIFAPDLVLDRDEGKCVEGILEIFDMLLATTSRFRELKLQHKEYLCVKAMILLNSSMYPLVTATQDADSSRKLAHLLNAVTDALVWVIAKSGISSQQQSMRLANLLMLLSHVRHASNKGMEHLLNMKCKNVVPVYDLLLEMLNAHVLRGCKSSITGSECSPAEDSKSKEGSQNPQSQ

Row | binding activity, ERα and buffer (ERα) | binding activity, ERα and estradiol (ERα) | binding activity, ERα and tamoxifen (ERα) | binding activity, ERβ and Estradiol (ERβ) | binding activity, ERβ and buffer (ERβ) | binding activity, ERβ and tamoxifen (ERβ) | Sequence
1 | 3+ | 3+ | 2+ | 7+ | 5+ | 2+ | SSRPSFTIPWWFDDPSRSR [Peptide 33E-β]
2 | 4+ | 5+ | 3+ | 7+ | 5+ | 2+ | SSRCSSLLCEMLIQTKESR [Peptide 22E-β]
3 | 3+ | 2+ | 3+ | 7+ | 3+ | 2+ | SSWDFRVPWWYNNSR [Peptide 31E-β]
4 | 3+ | 6+ and 3+ | 3+ | 7+ and 6+ | 7+ | 3+ and 7+ | HSYSSHPLLLSYLWGG [Peptide 23b-β]
5 | 5+ | 4+ | 4+ | 6+ | 7+ | 7+ | SSIPPRSWWLSQLSR [Peptide 19b-β]
6 | 3+ | 6+ | 3+ | 7+ | 6+ | 2+ | SSRLLCLLDAGQCSR [Peptide 16E-β]
7 | 5+ | 4+ | 4+ | 7+ | 5+ | 2+ | SSQWQAPWWYIDASR [Peptide 32E-β]
8 | 5+ | 4+ | 5+ | 6+ | 2+ | 1+ | SSGSSAGRLMMLLQDGVSR [Peptide 13E-β]
9 | 2+ | 3+ | 3+ | 4+ | 7+ | 5+ | SSSLGPWRLSELESR [Peptide 16b-β]
10 | 4+ | 3+ | 6+ | 2+ | 4+ | 7+ | SSGPFYVGGMLWPADCLSR [Peptide 10t-β]
11 | 6+ | 6+ | 5+ | 7+ | 4+ | – | SSHCHTRLCSLLTSR [Peptide 15E-β]
12 | 3+ | 4+ | 6+ | 4+ | 5+ | 7+ | SSISTYHMGEWFYAMLSSR [Peptide 22t-β]
13 | 6+ | 5+ | 6+ | 6+ | 5+ | 4+ | SSRTPILFSLLETSR [Peptide 11E-β]
14 | 4+ | 3+ | 3+ | 7+ | 3+ | 2+ | SSTRLMCWLGSADTSHCSR [Peptide 28E-β]
15 | 5+ | 5+ | 4+ | 7+ | 3+ | 2+ | SSRTLLEHYLLGGSR [Peptide 20E-β]
16 | 5+ | 6+ | 4+ | 7+ | 5+ | 2+ | SRPEGSSWLLHYLSR [Peptide 24E-β]

More lines, now with the values behind:

Row | Sequence | binding activity, ERα and buffer (ERα) | binding activity, ERα and estradiol (ERα) | binding activity, ERα and tamoxifen (ERα) | binding activity, ERβ and Estradiol (ERβ) | binding activity, ERβ and buffer (ERβ) | binding activity, ERβ and tamoxifen (ERβ)
17 | SSRGLLWDLLTKDSR [Peptide 1E-β] | 5+ | 7+ | 5+ | 7+ | 5+ | 3+
18 | SSWPNPTFWERQLSR [Peptide 3b-β] | 5+ | 3+ | 3+ | 2+ | 5+ | –
19 | SSDTRSRLYELLSSSYTSR [Peptide 5E-β] | 4+ | 6+ | 4+ | 7+ | 5+ | 2+
20 | SRLEDLLRGDSKPQSR [Peptide 7E-β] | 4+ | 6+ | 3+ | 6+ | 5+ | 1+
21 | SSARPWWLQFEGSSR [Peptide 7t-β] | 2+ | 2+ | 2+ | 7+ | 7+ | 7+
22 | SSTSWLHHYLMGTSR [Peptide 8b-β] | 1+ | 4+ | 2+ | 7+ | 7+ | 1+
23 | SSILERLLGGGSAETV [Peptide 9E-β] | 3+ | 4+ | – | 7+ | 4+ | 1+
24 | SRPYCLGDVWCLDSR [Peptide 2t-β] | 2+ | 2+ | 3+ | 6+ | 7+ | 7+
25 | SSQEEWLLPWRLASR [Peptide 8t-β] | 2+ | 2+ | 2+ | 5+ | 7+ | 5+
26 | SRLEELLRVGVLTSR [Peptide 6E-β] | 3+ | 5+ | 3+ | 7+ | 3+ | 1+
27 | SRSPILWHLLQDGSR [Peptide 10E-β] | 5+ | 6+ | 4+ | 7+ | 4+ | 2+
28 | SSGPWLMHYLGGGSR [Peptide 7b-β] | 2+ | 4+ | 3+ | 7+ | 7+ | 2+
29 | SSSMMREFFERELSR [Peptide 5b-β] | 6+ | 6+ | 7+ | 6+ | 7+ | 7+
30 | SSWNSREFFLSQLSR [Peptide 5t-β] | 3+ | 2+ | 5+ | 2+ | 2+ | 7+
